# Laboratory results as given in patent CN105348390A (BEIJING WISDOMAB BOITECHNOLOGY CO LTD, dated 2016).
# Positions count from the first letter of the chain named.
# B1: S3A12 (scFv)
# scFv: QVQLVQSGAEVKKPGASVKVSCKASGYAIYNYGISWVRQAPGQGLEWMGWVSYFGGSTTYAQKLQGRGTMTTDPSTSTAYMELRSLRSDDTAVYYCAKGYGMEIWGQGTTVSSGGGGSGGGGSGGGGSDIQMTQSPSSLSASVGDRVTITCRASQNVNNWLDWYQQKPGKAPKLLIYAASTRASGVPSRFSGSGSGTDFTLTISSLQPEDFATYYCQQDRDVPVTFGQGTKVEIK
# notes: also called 克隆S3A12
# B2: S2G1 (scFv)
# scFv: QMQLVQSGAEVKKPGSSVKVSCKTSGGTFGSSAIHWVRQAPRQGLEWMGRINPVLGTTNYTQKFHDRLTITADESTTTAYMELRSLRSDDTAVYYCAREGIPMIWGQGTMVTVSSGGGGSGGGGSGGGGSDIQMTQSPSSLSASVGDRVTITCRASQGIHNWLNWYQQKPGKAPKLLIYAASNRASGVPSRFSGSGSGTDFTLTISSLQPEDFATYYCQQSGKQPVTFGQGTKVEIK
# notes: also called 克隆S2G1
# B3: S2B8 (scFv)
# scFv: QVQLVESGGGLVKPGGSLRLSCAVSGFTFSRHSMNWVRQAPGKGLEWVSSISSGSSNIYYADSVKGRFTISRDNAKNSLYLQMNSLRDEDTAVYYCARGGLGPEYLQHWGQGTLVTVSSGGGGSGGGGSGGGGSSSELTQPASVSGSPGQSITISCTGTSSDIGDNNFVSWYQQYPGKAPKLMIYDVSNRPSGVSNRFSGSKSGNTASLTISGLQAEDEADYYCSSYTSSSTLVFGGGTKVTVLG
# notes: also called 克隆S2B8
# B4: S2F5 (scFv)
# scFv: QVQLVQSGAEVKKPGSSVKVSCKASGGTFTGYSIHWVRQAPGQGLEWMGWINPISGSANYAQKFQGRVTITADKSTSTAYMELSSLRSEDTAVYYCARTQNNTGYRGTDYWGQGTLVTVSSGGGGSGGGGSGGGSDIQMTQSPSSLSASVGDRVTITCRASQSVSSYLNWYQQKPGKAPKLLIYGASTRPSGVPSRFSGSGSGTDFTLTISSLQPEDFATYYCQQHADTPTTFGQGTKVEIK
# notes: also called 克隆S2F5
# B5: Alirocumab (antibody, V domains shown)
# VH: EVQLVESGGGLVQPGGSLRLSCAASGFTFNNYAMNWVRQAPGKGLDWVSTISGSGGTTNYADSVKGRFIISRDSSKHTLYLQMNSLRAEDTAVYYCAKDSNWGNFDLWGRGTLVTVSS
# VL: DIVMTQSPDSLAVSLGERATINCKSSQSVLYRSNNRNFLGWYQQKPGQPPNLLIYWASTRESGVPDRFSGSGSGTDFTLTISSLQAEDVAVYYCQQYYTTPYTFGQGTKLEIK
# B6: H4H4-IgG4 (antibody, V domains shown)
# VH: QVQLVQSGAEVKKPGASVKVSCKASGYAIYNYGISWVRQAPGQGLEWMGWVSFYNGNTNYAQKLQGRGTMTTDPSTSTAYMELRSLRSDDTAVYYCARGYVMDIWGQGTTVTVSS
# VL: DIQMTQSPSSLSASVGDRVTITCRASQSINNWLDWYQQKPGKAPKLLIYAASTRPSGVPSRFSGSGSGTDFTLTISSLQPEDFATYYCQQDQDIPPTFGQGTKVEIKR
# B7: H7B12-IgG4 (antibody, V domains shown)
# VH: B6 VH with A28T, I29L, Y30N
# VL: B6 VL
# B8: H8A7-IgG4 (antibody, V domains shown)
# VH: B6 VH with I104F
# VL: B6 VL
# B9: H8F4-IgG4 (antibody, V domains shown)
# VH: B6 VH with I29L
# VL: B6 VL
# Target: T1, 重组huPCSK9-his (人PCSK9, C端His-tag) (human, UniProt Q8NBP7 54-692)
# T1 construct: Expressed in HEK293 cells; not shown: C-terminal His-tag
# T1 sequence (Q8NBP7 other isoform, or with tags, fused parts or gaps): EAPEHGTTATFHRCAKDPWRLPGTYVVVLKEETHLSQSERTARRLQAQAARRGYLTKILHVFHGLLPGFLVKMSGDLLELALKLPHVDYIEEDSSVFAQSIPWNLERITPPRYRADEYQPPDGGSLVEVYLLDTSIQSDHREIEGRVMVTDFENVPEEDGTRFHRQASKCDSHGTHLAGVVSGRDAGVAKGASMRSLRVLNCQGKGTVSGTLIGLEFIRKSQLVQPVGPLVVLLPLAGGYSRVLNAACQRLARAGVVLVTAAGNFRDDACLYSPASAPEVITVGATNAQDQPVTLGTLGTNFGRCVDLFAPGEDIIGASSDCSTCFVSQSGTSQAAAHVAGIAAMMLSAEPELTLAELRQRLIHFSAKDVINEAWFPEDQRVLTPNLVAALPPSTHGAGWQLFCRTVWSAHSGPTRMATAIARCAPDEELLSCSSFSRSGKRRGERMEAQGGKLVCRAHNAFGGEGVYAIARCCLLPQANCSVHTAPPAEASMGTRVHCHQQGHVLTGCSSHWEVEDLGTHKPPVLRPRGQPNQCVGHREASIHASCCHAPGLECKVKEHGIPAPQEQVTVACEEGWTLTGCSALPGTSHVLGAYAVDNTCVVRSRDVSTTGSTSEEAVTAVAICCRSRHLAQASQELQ
# Test: solid-phase panning of scFv phage library on huPCSK9-his
row,binding result,Binder
1,binds,B1
2,binds,B2
3,binds,B3
4,binds,B4

# Target: T1, 重组huPCSK9-his (人PCSK9, C端His-tag)
# Test: SPR, Biacore 3000, antibody captured by anti-human Fc on CM5, huPCSK9 as analyte
Kd [nM],koff [s⁻¹],kon [M⁻¹ s⁻¹],Binder
0.0677,0.000154,2.27e+06,B5
0.0659,4.7e-05,714000,B6
0.0323,3.26e-05,1.01e+06,B7
0.0648,4.83e-05,746000,B8
0.0675,4.48e-05,663000,B9
